What was measured:
3′ modified nucleotide [1] = assay: Single incorporation method (single cycle of nucleotide incorporation, gel read-out); type: biochemical; details: 45° C.
Experimental: In order to determine whether the modified polymerases described in the previous examples have the capability to incorporate different nucleotide analogues that bear large modifications at the 3′ position of the sugar, three different uracil nucleotide analogues (3′ O-allyl, 3′ S-methyl, and 3′ O-azido methyl) were tested for their ability to be incorporated by two different […] (9° N ED variant polymerase, and 9° N YAV variant polymerase), compared to a control polymerase (9° N DM). A single cycle of nucleotide incorporation was performed at different time intervals using a ‘single incorporation’ method described below.
1. In a clean reaction tube, mix the following components: • 100 nM ^32P-labelled duplex DNA substrate • 50 μg/ml isolated DNA polymerase • 50 mM TrisHCl, pH 8 • 0.05% Tween20 • water to 47 μL
2. incubate the mixture at 45° C.
3. Add 4 mM MgSO4 and 2 μM 3′ modified nucleotide to the reaction mixture from 2, such that the total reaction volume is 50 μL
4. at various time intervals remove 5 μL aliquots from the reaction tube and mix with 5 μL gel loading buffer (described in Example 2)
5. Heat samples and load on acrylamide gels as described in Example 2.
To determine if the DNA polymerases described in previous examples were capable of incorporating 3′ modified nucleotide derivatives of A, G, C and T bases, and also of incorporating such nucleotide derivatives further modified by different fluorescent reporter groups, a single incorporation reaction (as described in Example 3) was performed with the following 3′ O-azido methyl nucleotide derivatives: […]

3′ modified nucleotide [2] = assay: Gel-based incorporation assay of Example 2, two cycles of enzymology on bead-bound 32P-labelled DNA template; type: biochemical
Experimental: The mutant polymerases were assessed for their ability to incorporate a 3′ blocked nucleotide analogue using a gel-based assay as described in generic form in Example 1. The rates of incorporation of the modified nucleotides were compared to purified forms of related DNA polymerases in both a single round of incorporation and through two rounds of nucleotide incorporation. The DNA template that was used for these experiments was a commercially-synthesised biotinylated oligonucleotide.
The method for two cycles of incorporation involves the binding of the DNA primer-template to streptavidin-coated beads (Dynalbeads). These are prepared as follows: • Resuspend beads in storage pot by pipetting up and down Take 20 μL beads • Wash 3×200 μL TE buffer (10 mM Tris HCl pH 7.5, 1 mM EDTA) Add 50 μL B&W buffer (5 mM Tris HCl, pH 7.5; 1M NaCl, […]) • 25 μL H2O • 25 μL of ^32P-labelled biotin DNA template (final concentration of 100 nM)
The first cycle of enzymatic incorporation is performed on these beads as follows:
Incorporation mix 1 is added to the bead pellet from above.
Reactions are incubated at 45° C. for 15 minutes
The first cycle of enzymology is then deblocked by treatment with tri(carboxyethyl) phosphine (TCEP) as follows:
Add 65 μL TCEP (100 mM) in water and incubate at 65° C. for 15 minutes
After removal of the TE buffer, a second cycle of enzymatic incorporation is then performed by the addition of incorporation mix 2, as follows:
Take 5 μL samples out at ½, 1, 2, 4, 10, 30, 60 mins and add to gel loading buffer with EDTA.
Heat all samples to 95° C. for 10 mins and load 3 μl on a 12% acrylamide gel (Sambrook and Russell, 2001).
Time (mins) to 50% product conversion on second cycle of enzymology at 45° C., 50 mM Tris, pH 8, 4 mM MgSO4, 0.05 (v/v) Tween, 50 μg/ml enzyme, and 2 μM 3′ modified nucleotide. Time to 50% product conversion on first cycle of incorporation shown in parentheses. For other mutants the time to 50% conversion on the first cycle was not measured in these experiments

[3] = 45° C., 50 mM Tris, pH 8, 4 mM MgSO4, 0.05 (v/v) Tween, 50 μg/ml enzyme, 2 μM 3′ modified nucleotide

Molecule | incorporation of uracil nucleotide analogues with different 3′ modifications (3′ modified nucleotide [1]; 3′ O-allyl, 3′ S-methyl and 3′ O-azido methyl, single cycle, 2 μM nucleotide, FIG. 3) | concentration of 3′ blocked nucleotide at which incorporation can be measured (as low as) (3′ modified nucleotide [1]; first cycle, single cycle experiment) [nM] | Time to 50% product conversion on first cycle of incorporation (3′ modified nucleotide [2]; 45° C., 50 mM Tris, pH 8, 4 mM MgSO4, 0.05 (v/v) Tween, 50 μg/ml enzyme, 2 μM 3′ modified nucleotide, first cycle (in parentheses)) | Time (mins) to 50% product conversion on second cycle of enzymology (3′ modified nucleotide [2]; [3]) [min] | incorporation of 3′ modified nucleotide analogues compared to 9° N DM (Y409V/A485L) (3′ modified nucleotide [2]; region A variants, conditions of Example 2)
YAV: 9° N polymerase (exo-) mutant, motif A region YAV, also A485L; SEQ ID NO: 22 (protein, 9oN polymerase variant (exo-) with L408Y/Y409A/P410V mutations) MILDTDYITENGKPVIRVFKKENGEFKIEYDRTFEPYFYALLKDDSAIEDVKKVTAKRHGTVVKVKRAEKVQKKFLGRPIEVWKLYFNHPQDVPAIRDRIRAHPAVVDIYEYDIPFAKRYLIDKGLIPMEGDEELTMLAFAIATLYHEGEEFGTGPILMISYADGSEARVITWKKIDLPYVDVVSTEKEMIKRFLRVVREKDPDVLITYNGDNFDFAYLKKRCEELGIKFTLGRDGSEPKIQRMGDRFAVEVKGRIHFDLYPVIRRTINLPTYTLEAVYEAVFGKPKEKVYAEEIAQAWESGEGLERVARYSMEDAKVTYELGREFFPMEAQLSRLIGQSLWDVSRSSTGNLVEWFLLRKAYKRNELAPNKPDERELARRRGGYAGGYVKEPERGLWDNIVYLDFRSYAVSIIITHNVSPDTLNREGCKEYDVAPEVGHKFCKDFPGFIPSLLGDLLEERQKIKRKMKATVDPLEKKLLDYRQRLIKILANSFYGYYGYAKARWYCKECAESVTAWGREYIEMVIRELEEKFGFKVLYADTDGLHATIPGADAETVKKKAKEFLKYINPKLPGLLELEYEGFYVRGFFVTKKKYAVIDEEGKITTRGLEIVRRDWSEIAKETQARVLEAILKHGDVEEAVRIVKEVTEKLSKYEVPPEKLVIHEQITRDLRDYKATGPHVAVAKRLAARGVKIRPGTVISYIVLKGSGRIGDRAIPADEFDPTKHRYDAEYYIENQVLPAVERILKAFGYRKEDLRYQKTKQVGLGAWLKVKGKK | incorporated efficiently | 50 | min (5 sec) | 1.2 | best incorporation rate
CST: 9° N DM-derived polymerase with amino acids 408-410 CST (protein, UniProt Q56366 1-775, looked up, variant D141A E143A L408C Y409S P410T A485L) DNA polymerase: MILDTDYITENGKPVIRVFKKENGEFKIEYDRTFEPYFYALLKDDSAIEDVKKVTAKRHGTVVKVKRAEKVQKKFLGRPIEVWKLYFNHPQDVPAIRDRIRAHPAVVDIYEYDIPFAKRYLIDKGLIPMEGDEELTMLAFAIATLYHEGEEFGTGPILMISYADGSEARVITWKKIDLPYVDVVSTEKEMIKRFLRVVREKDPDVLITYNGDNFDFAYLKKRCEELGIKFTLGRDGSEPKIQRMGDRFAVEVKGRIHFDLYPVIRRTINLPTYTLEAVYEAVFGKPKEKVYAEEIAQAWESGEGLERVARYSMEDAKVTYELGREFFPMEAQLSRLIGQSLWDVSRSSTGNLVEWFLLRKAYKRNELAPNKPDERELARRRGGYAGGYVKEPERGLWDNIVYLDFRSCSTSIIITHNVSPDTLNREGCKEYDVAPEVGHKFCKDFPGFIPSLLGDLLEERQKIKRKMKATVDPLEKKLLDYRQRLIKILANSFYGYYGYAKARWYCKECAESVTAWGREYIEMVIRELEEKFGFKVLYADTDGLHATIPGADAETVKKKAKEFLKYINPKLPGLLELEYEGFYVRGFFVTKKKYAVIDEEGKITTRGLEIVRRDWSEIAKETQARVLEAILKHGDVEEAVRIVKEVTEKLSKYEVPPEKLVIHEQITRDLRDYKATGPHVAVAKRLAARGVKIRPGTVISYIVLKGSGRIGDRAIPADEFDPTKHRYDAEYYIENQVLPAVERILKAFGYRKEDLRYQKTKQVGLGAWLKVKGKK | – | – | – | 19.5 | –
YST: 9° N DM-derived polymerase with amino acids 408-410 YST (protein, UniProt Q56366 1-775, looked up, variant D141A E143A L408Y Y409S P410T A485L) DNA polymerase: MILDTDYITENGKPVIRVFKKENGEFKIEYDRTFEPYFYALLKDDSAIEDVKKVTAKRHGTVVKVKRAEKVQKKFLGRPIEVWKLYFNHPQDVPAIRDRIRAHPAVVDIYEYDIPFAKRYLIDKGLIPMEGDEELTMLAFAIATLYHEGEEFGTGPILMISYADGSEARVITWKKIDLPYVDVVSTEKEMIKRFLRVVREKDPDVLITYNGDNFDFAYLKKRCEELGIKFTLGRDGSEPKIQRMGDRFAVEVKGRIHFDLYPVIRRTINLPTYTLEAVYEAVFGKPKEKVYAEEIAQAWESGEGLERVARYSMEDAKVTYELGREFFPMEAQLSRLIGQSLWDVSRSSTGNLVEWFLLRKAYKRNELAPNKPDERELARRRGGYAGGYVKEPERGLWDNIVYLDFRSYSTSIIITHNVSPDTLNREGCKEYDVAPEVGHKFCKDFPGFIPSLLGDLLEERQKIKRKMKATVDPLEKKLLDYRQRLIKILANSFYGYYGYAKARWYCKECAESVTAWGREYIEMVIRELEEKFGFKVLYADTDGLHATIPGADAETVKKKAKEFLKYINPKLPGLLELEYEGFYVRGFFVTKKKYAVIDEEGKITTRGLEIVRRDWSEIAKETQARVLEAILKHGDVEEAVRIVKEVTEKLSKYEVPPEKLVIHEQITRDLRDYKATGPHVAVAKRLAARGVKIRPGTVISYIVLKGSGRIGDRAIPADEFDPTKHRYDAEYYIENQVLPAVERILKAFGYRKEDLRYQKTKQVGLGAWLKVKGKK | – | – | – | 2.1 | –
AAA: 9° N DM-derived polymerase with amino acids 408-410 AAA (protein, UniProt Q56366 1-775, looked up, variant D141A E143A L408A Y409A P410A A485L) DNA polymerase: MILDTDYITENGKPVIRVFKKENGEFKIEYDRTFEPYFYALLKDDSAIEDVKKVTAKRHGTVVKVKRAEKVQKKFLGRPIEVWKLYFNHPQDVPAIRDRIRAHPAVVDIYEYDIPFAKRYLIDKGLIPMEGDEELTMLAFAIATLYHEGEEFGTGPILMISYADGSEARVITWKKIDLPYVDVVSTEKEMIKRFLRVVREKDPDVLITYNGDNFDFAYLKKRCEELGIKFTLGRDGSEPKIQRMGDRFAVEVKGRIHFDLYPVIRRTINLPTYTLEAVYEAVFGKPKEKVYAEEIAQAWESGEGLERVARYSMEDAKVTYELGREFFPMEAQLSRLIGQSLWDVSRSSTGNLVEWFLLRKAYKRNELAPNKPDERELARRRGGYAGGYVKEPERGLWDNIVYLDFRSAAASIIITHNVSPDTLNREGCKEYDVAPEVGHKFCKDFPGFIPSLLGDLLEERQKIKRKMKATVDPLEKKLLDYRQRLIKILANSFYGYYGYAKARWYCKECAESVTAWGREYIEMVIRELEEKFGFKVLYADTDGLHATIPGADAETVKKKAKEFLKYINPKLPGLLELEYEGFYVRGFFVTKKKYAVIDEEGKITTRGLEIVRRDWSEIAKETQARVLEAILKHGDVEEAVRIVKEVTEKLSKYEVPPEKLVIHEQITRDLRDYKATGPHVAVAKRLAARGVKIRPGTVISYIVLKGSGRIGDRAIPADEFDPTKHRYDAEYYIENQVLPAVERILKAFGYRKEDLRYQKTKQVGLGAWLKVKGKK | – | – | – | 6.9 | –

— US8460910B2 (Illumina Cambridge Limited, priority 2003, dated 2013)
